In doi:10.1101/2024.08.05.606605v1 one finds Km and kcat data, which are given here for five substances.

For this data set, the system named is O=[N+]([O-])c1ccc(O[C@@H]2O[C@H](CO)[C@@H](O)[C@H](O)[C@H]2O)cc1. In words: purified protein. The following applies: 50 mM sodium acetate pH 5.5, 55 °C.
Regarding “WT-AtGH1 (Acetivibrio thermocellus ATCC 27405; G168W)”, the Michaelis constant (Km) (usually the substrate concentration at which the rate is half of its maximum) worked out at 2230 ± 130 µM; the kcat (as a rule, the number of substrate molecules converted per active site and unit of time at saturation) turned out to be 9.1175 s⁻¹.

“WT-AtGH1 (Acetivibrio thermocellus ATCC 27405)”: the Km was determined as 2420 ± 170 µM and the turnover number (kcat) worked out at 10.08 s⁻¹.

In the case of “WT-AtGH1 (Acetivibrio thermocellus ATCC 27405; S242W)”, the Km is 2100 ± 100 µM and the turnover number (kcat) came to 27.115 s⁻¹.

In the case of “WT-AtGH1 (Acetivibrio thermocellus ATCC 27405; G168W/S242L)”, the Km was determined as 1320 ± 110 µM and the kcat stood at 12.38 s⁻¹.

Take “WT-AtGH1 (Acetivibrio thermocellus ATCC 27405; S242L)”: the Michaelis constant (Km) was determined as 1790 ± 110 µM and the kcat was 7.0875 s⁻¹.
